Here are results for 9 molecules from US20210261648A1 (published 2021).

This assay deals with T1, FcγRIIb extracellular domain with C-terminal His tag (human, UniProt P31994 43-217).
T1 construct: extracellular domain; For crystals it was expressed with kifunensine and trimmed with Endo F1; also called FcgRIIb; FcγRIIb extracellular region
T1 sequence (looked up): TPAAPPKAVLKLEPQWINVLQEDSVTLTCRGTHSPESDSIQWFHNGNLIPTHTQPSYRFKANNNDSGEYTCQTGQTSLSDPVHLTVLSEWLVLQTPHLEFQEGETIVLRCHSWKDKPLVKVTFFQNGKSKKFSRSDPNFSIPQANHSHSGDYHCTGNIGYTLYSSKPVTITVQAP
The assay is described as follows: SPR (Biacore).

B1: IL6R-BP458/IL6R-L (antibody, human IgG1, kappa, name in EU numbering)
heavy: QVQLQESGPGLVKPSETLSLTCAVSGHSISHDHAWSWVRQPPGEGLEWIGFISYSGITNYNPSLQGRVTISRDNSKNTLYLQMNSLRAEDTAVYYCARSLARTTAMDYWGEGTLVTVSSASTKGPSVFPLAPSSKSTSGGTAALGCLVKDYFPEPVTVSWNSGALTSGVHTFPAVLQSSGLYSLSSVVTVPSSSLGTQTYICNVNHKPSNTKVDKKVEPKSCDKTHTCPPCPAPDLLGDDSVFLFPPKPKDTLMISRTPEVTCVVVDVAEEDGEVKFNWYVDGVEVHNAKTKPREEQYNSTYRVVSVLTVLHQDWLNGKEYKCKVSNKALPRPIEKTISKAKGQPREPQVYTLPPSRDELTKNQVSLTCLVKGFYPSDIAVEWESNGQPENNYKTTPQVLDSDGSFFLYSKLTVDKSRWQQGNVFSCSVMHEALHNHYTQESLSLSP
light: not shown
As to B1, the binding result is “binds”.

B2: IL6R-BP459/IL6R-L (antibody, human IgG1, kappa, name in EU numbering)
heavy: QVQLQESGPGLVKPSETLSLTCAVSGHSISHDHAWSWVRQPPGEGLEWIGFISYSGITNYNPSLQGRVTISRDNSKNTLYLQMNSLRAEDTAVYYCARSLARTTAMDYWGEGTLVTVSSASTKGPSVFPLAPSSKSTSGGTAALGCLVKDYFPEPVTVSWNSGALTSGVHTFPAVLQSSGLYSLSSVVTVPSSSLGTQTYICNVNHKPSNTKVDKKVEPKSCDKTHTCPPCPAPDLLGDDSVFLFPPKPKDTLMISRTPEVTCVVVDVAEEDGEVKFNWYVDGVEVHNAKTKPREEQYNSTYRVVSVLTVLHQDWLNGKEYKCKVSNKALPRPIEKTISKAKGQPREPQVYTLPPSRDELTKNQVSLTCLVKGFYPSDIAVEWESNGQPENNYKTTPRVLDSDGSFFLYSKLTVDKSRWQQGNVFSCSVMHEALHNHYTQESLSLSP
light: not shown
Regarding B2, the binding result is listed as “binds”.

B3: IL6R-BP465/IL6R-L (antibody, human IgG1, kappa)
heavy: QVQLQESGPGLVKPSETLSLTCAVSGHSISHDHAWSWVRQPPGEGLEWIGFISYSGITNYNPSLQGRVTISRDNSKNTLYLQMNSLRAEDTAVYYCARSLARTTAMDYWGEGTLVTVSSASTKGPSVFPLAPSSKSTSGGTAALGCLVKDYFPEPVTVSWNSGALTSGVHTFPAVLQSSGLYSLSSVVTVPSSSLGTQTYICNVNHKPSNTKVDKKVEPKSCDKTHTCPPCPAPDLLGDDSVFLFPPKPKDTLMISRTPEVTCVVVDVSDEDGEVKFNWYVDGVEVHNAKTKPREEQDNSTYRVVSVLTVLHQDWLNGKEYKCKVSNKALPRPIKKTISKAKGQPREPQVYTLPPSRDELTKNQVSLTCLVKGFYPSDIAVEWESNGQPENNYKTTPPVLDSDGSFFLYSKLTVDKSRWQQGNVFSCSVMHEALHNHYTQESLSLSP
light: not shown
On to B3, for which the binding result is recorded as “binds”.

B4: IL6R-BP470/IL6R-L (antibody, human IgG1, kappa)
heavy: QVQLQESGPGLVKPSETLSLTCAVSGHSISHDHAWSWVRQPPGEGLEWIGFISYSGITNYNPSLQGRVTISRDNSKNTLYLQMNSLRAEDTAVYYCARSLARTTAMDYWGEGTLVTVSSASTKGPSVFPLAPSSKSTSGGTAALGCLVKDYFPEPVTVSWNSGALTSGVHTFPAVLQSSGLYSLSSVVTVPSSSLGTQTYICNVNHKPSNTKVDKKVEPKSCDKTHTCPPCPAPDLLGDDSVFLFPPKPKDTLMISRTPEVTCVVVDVSDEDGEVKFNWYVDGVEVHNAKTKPREEQDNSTYRVVSVLTVLHQDWLNGKEYKCKVSNKALPRPITKTISKAKGQPREPQVYTLPPSRDELTKNQVSLTCLVKGFYPSDIAVEWESNGQPENNYKTTPPVLDSDGSFFLYSKLTVDKSRWQQGNVFSCSVMHEALHNHYTQESLSLSP
light: not shown
Regarding B4, the binding result is recorded as “binds”.

B5: IL6R-BP493/IL6R-L (antibody, human IgG1, kappa)
heavy: QVQLQESGPGLVKPSETLSLTCAVSGHSISHDHAWSWVRQPPGEGLEWIGFISYSGITNYNPSLQGRVTISRDNSKNTLYLQMNSLRAEDTAVYYCARSLARTTAMDYWGEGTLVTVSSASTKGPSVFPLAPSSKSTSGGTAALGCLVKDYFPEPVTVSWNSGALTSGVHTFPAVLQSSGLYSLSSVVTVPSSSLGTQTYICNVNHKPSNTKVDKKVEPKSCDKTHTCPPCPAPELLGGDSVFLFPPKPKDTLMISRTPEVTCVVIDVAEEDGEVKFNWYVDGVEVHNAKTKPREEQDNSTYRVVSVLTVLHQDWLNGKEYKCKVSNKALPAPIEKTISKAKGQPREPQVYTLPPSRDELTKNQVSLTCLVKGFYPSDIAVEWESNGQPENNYKTTPPVLDSDGSFFLYSKLTVDKSRWQQGNVFSCSVMHEALHNHYTQESLSLSP
light: not shown
Regarding B5, the “binding relative to IL6R-B3/IL6R-L” value was at least 100 times.

B6: IL6R-BP492/IL6R-L (antibody, human IgG1, kappa)
heavy: QVQLQESGPGLVKPSETLSLTCAVSGHSISHDHAWSWVRQPPGEGLEWIGFISYSGITNYNPSLQGRVTISRDNSKNTLYLQMNSLRAEDTAVYYCARSLARTTAMDYWGEGTLVTVSSASTKGPSVFPLAPSSKSTSGGTAALGCLVKDYFPEPVTVSWNSGALTSGVHTFPAVLQSSGLYSLSSVVTVPSSSLGTQTYICNVNHKPSNTKVDKKVEPKSCDKTHTCPPCPAPELLGGDSVFLFPPKPKDTLMISRTPEVTCVVIDVAEEDGEVKFNWYVDGVEVHNAKTKPREEQYNSTYRVVSVLTVLHQDWLNGKEYKCKVSNKALPAPIEKTISKAKGQPREPQVYTLPPSRDELTKNQVSLTCLVKGFYPSDIAVEWESNGQPENNYKTTPPVLDSDGSFFLYSKLTVDKSRWQQGNVFSCSVMHEALHNHYTQESLSLSP
light: not shown
Take B6: the “binding relative to IL6R-B3/IL6R-L” value was at least 100 times.

B7: IL6R-BP466/IL6R-L (antibody, human IgG1, kappa)
heavy: QVQLQESGPGLVKPSETLSLTCAVSGHSISHDHAWSWVRQPPGEGLEWIGFISYSGITNYNPSLQGRVTISRDNSKNTLYLQMNSLRAEDTAVYYCARSLARTTAMDYWGEGTLVTVSSASTKGPSVFPLAPSSKSTSGGTAALGCLVKDYFPEPVTVSWNSGALTSGVHTFPAVLQSSGLYSLSSVVTVPSSSLGTQTYICNVNHKPSNTKVDKKVEPKSCDKTHTCPPCPAPDLLGDDSVFLFPPKPKDTLMISRTPEVTCVVVDVSDEDGEVKFNWYVDGVEVHNAKTKPREEQDNSTYRVVSVLTVLHQDWLNGKEYKCKVSNKALPRPIRKTISKAKGQPREPQVYTLPPSRDELTKNQVSLTCLVKGFYPSDIAVEWESNGQPENNYKTTPPVLDSDGSFFLYSKLTVDKSRWQQGNVFSCSVMHEALHNHYTQESLSLSP
light: not shown
In the case of B7, the binding result is recorded as “binds”.

B8: IL6R-BP464/IL6R-L (antibody, human IgG1, kappa, name in EU numbering)
heavy: QVQLQESGPGLVKPSETLSLTCAVSGHSISHDHAWSWVRQPPGEGLEWIGFISYSGITNYNPSLQGRVTISRDNSKNTLYLQMNSLRAEDTAVYYCARSLARTTAMDYWGEGTLVTVSSASTKGPSVFPLAPSSKSTSGGTAALGCLVKDYFPEPVTVSWNSGALTSGVHTFPAVLQSSGLYSLSSVVTVPSSSLGTQTYICNVNHKPSNTKVDKKVEPKSCDKTHTCPPCPAPDLLGDDSVFLFPPKPKDTLMISRTPEVTCVVVDVAEEDGEVKFNWYVDGVEVHNAKTKPREEQYNSTYRVVSVLTVLHQDWLNGKEYKCKVSNKALPRPIEKTISKAKGQPREPQVYTLPPSRDELTKNQVSLTCLVKGFYPSDIAVEWESNGQPENNYKTTPYVLDSDGSFFLYSKLTVDKSRWQQGNVFSCSVMHEALHNHYTQESLSLSP
light: not shown
Take B8: the binding result was “binds”.

B9: IL6R-BP500/IL6R-L (antibody, human IgG1, kappa)
heavy: QVQLQESGPGLVKPSETLSLTCAVSGHSISHDHAWSWVRQPPGEGLEWIGFISYSGITNYNPSLQGRVTISRDNSKNTLYLQMNSLRAEDTAVYYCARSLARTTAMDYWGEGTLVTVSSASTKGPSVFPLAPSSKSTSGGTAALGCLVKDYFPEPVTVSWNSGALTSGVHTFPAVLQSSGLYSLSSVVTVPSSSLGTQTYICNVNHKPSNTKVDKKVEPKSCDKTHTCPPCPAPELLGDDSVFLFPPKPKDTLMISRTPEVTCVVIDVAEEDGEVKFNWYVDGVEVHNAKTKPREEQDNSTYRVVSVLTVLHQDWLNGKEYKCKVSNKALPAPIEKTISKAKGQPREPQVYTLPPSRDELTKNQVSLTCLVKGFYPSDIAVEWESNGQPENNYKTTPPVLDSDGSFFLYSKLTVDKSRWQQGNVFSCSVMHEALHNHYTQESLSLSP
light: not shown
As for B9, the “binding relative to IL6R-B3/IL6R-L” value is at least 100 times.
